{"source": "the DeepSol protein solubility set"}
{"experiment": "soluble on expression in E. coli; label from the status in PepcDB or PDB records"}
{"sequence": "PVLATQWNNYQQSRAAEAYSQLEKGVPPEVLNKAWEEAQQYNANLGDIDPGDAWTSSDDESSSAYQRYLNYLSALNETEAMGRIVLPSIKSDLPIFHGTSDRVLARGVGHLYGTDLPVGAPGELGEDGVIPPAPPEGRLS", "soluble on expression in E. coli": "not soluble"}
{"sequence": "MIDERLKKDLAILPISTVRALTNLSDRQIRYYESQDLLTTKRGKGGQRRFSLNDVERLIEIRMMMESGDSLKDIHNLYETHRVSNRRNEKTEFVHSLENEFLKIGRLEKH", "soluble on expression in E. coli": "not soluble"}
{"sequence": "MTDPARMVELWRGGLLESWHTGHAAVWSADGGLVEAWGDPGTVIFPRSSCKMMQALPLLESGAGAGLSSQRLALACASHQGAELHTGHVGRWLTDLGLCEADLRCGAHMPADTAERDRLIRAYEEPCQIHNNCSGKHAGFLMLSQHLKAGPEYVEIDHPVQQAVRTAFEEVTDEASPGYGIDGCSAPNFATTVAGLARAMAFFAGASTGGGVRERSAARLVEAMIAHPELVAGEGRACTELMRAMGGRAAIKTGAEAVFVAIVPEKRLGIALKIVDGSTRASEAAIAALLVRHGLLDPAHPAARKRLDAIQTNWRGRETGILRAAPGFPLEHHHHHH", "soluble on expression in E. coli": "not soluble"}
{"sequence": "MGKLFGTFGVRGIANEKITPEFAMKIGMAFGTLLKREGRKKPLVVVGRDTRVSGEMLKEALISGLLSVGCDVIDVGIAPTPAVQWATKHFNADGGAVITASHNPPEYNGIKLLEPNGMGLKKEREAIVEELFFKEDFDRAKWYEIGEVRREDIIKPYIEAIKSKVDVEAIKKRKPFVVVDTSNGAGSLTLPYLLRELGCKVITVNAQPDGYFPARNPEPNEENLKEFMEIVKALGADFGVAQDGDADRAVFIDENGRFIQGDKTFALVADAVLKEKGGGLLVTTVATSNLLDDIAKKHGAKVMRTKVGDLIVARALYENNGTIGGEENGGVIFPEHVLGRDGAMTVAKVVEIFAKSGKKFSELIDELPKYYQIKTKRHVEGDRHAIVNKVAEMARERGYTVDTTDGAKIIFEDGWVLVRASGTEPIIRIFSEAKSKEKAQEYLNLGIELLEKALS", "soluble on expression in E. coli": "soluble"}
{"sequence": "SSEQAIIVSAINHSLAQFSCHLIDGVTGSGKTEVYLQSMEEVLANNQQVLVIVPEIGLTPQTLNRFEQRFNVPIALHHSGLNDKERLATWLSAQQGSAAIVIGTRSAVFTPLHRLGLIIIDEEHDSSLKQQDSFRYHCRDMAILRARQLNIPIVLGTATP", "soluble on expression in E. coli": "not soluble"}
{"sequence": "MSATINDLASFNKFFTENQHRFIRFAWTYTRDEVVAEDIVMESLMAYWENRDHMTPEINPAAYVLTVVKNKCLNYLRHLQLVNDVSDRVASHSEWELSNRIATLDACEPNALFASEVQDIIDRVISRLSATTARIFLLSRYDNKSHKEIAEIMGMTVKGVEFHISKATKELRVALKDYLVLFPFLCDFLSRN", "soluble on expression in E. coli": "not soluble"}
{"sequence": "MGSDKIHHHHHHMRRVISIFRKLSAVYCHTGNFAEGIRVCKYALGRFTEMEDKYKCIFTFNMSLYYNYLGEYGKALNAITGFESVIKATYEDRYYKVLLLKADCYYGAERYAESLSIYNKLISITLKDDFNNLCVYYNNMTQVYLRMGKRDMAVNCINTVINNLHNISDDFEALPQIYAELGKSYLMMADNDKSIKYLTIALKLSKDFKYYSVTKDILNELSKIKGNSNKLKLKDEFIILTENMGRSYDSLNHSLVFNIIQYYTRLGDVASINELCEYCKERKVG", "soluble on expression in E. coli": "not soluble"}
{"sequence": "MKRNGETKRRRNVAEEAEQGEDPAMWENLDRNFRQVQSVLDRNRSLIQQVNDNHQSRMADNMSKNVALIQELNGNISKVVNMYSDLNTSFSSGFHGGKNGHDGGGAAGTRA", "soluble on expression in E. coli": "soluble"}
{"sequence": "MVRIDLGIKGKKVIVTAASKGIGFATAKRFLEEGAKVIISSHDENNLRKAYERLKNLGEVNYIIADLTKPSDVENLIKSGYSTLGGLDVLVYVTGSPKPGNLFELTNEDWINAFYLLLMSAVIAVREAGKLMKSGGRIILSTSMTLKEPLPNLDLSNVVRLSLAGLIKVAARELGEKGILVNGVMPGWTLTDRVDQLVKDRAKREGRSEEEIIRDITRDVPLKRIGKPEEVANVILFLASELSTYVNGVLIPVDGGLIKATL", "soluble on expression in E. coli": "soluble"}
{"sequence": "IQQHSTDIETPTGTMRTYVYRPQASGKFPTIIFYSEIFQQTAPIARTAALMAGHGFVVLVPEVFHELNPIGTVLGYDDAGKDKGNQDKWAKPLEHHDSDTQALVNFIQQQDYCSGKIGTMGVCIGGHLAYRAALNKSVLAAACLYATDIHSGDLPSAEGNDSLTRTKDISAELMMIWGKQDPHIPDEGRMMIHKNLIASGNLFSWHEFNASHAFMRDEGERYDPQLALRVYGMSVELFNRTL", "soluble on expression in E. coli": "not soluble"}
{"sequence": "MSLGQDEALEKALDMIRNADRIVIGGGAGLSACGGLNYMSLEVLKKEFPALARRGYHTLWEALWDDRRTKQQKIGMMAAEVLWACYDFPVIRAYQDLLRMVEDKDYFVLTSNIDRQFHKAGFEEERIFEPQCSASDLQCQTPCCRDIWDGESVWRKIAANMDRETYACREEDIPRCDRCHAPAVQNMRGIKSFIPDKVMWNRIEFEQYIKEASDLRTVFLELGAGFNSPGVIRHPFQRLAYRYPKAALIRMNQEFPKVPEKIKDRSVEIAGDIGEALAQMRRLYEREGHHHHHH", "soluble on expression in E. coli": "soluble"}
{"sequence": "SGIMHQINNVYSLTPLSLPMELTPSCNEFYLKTWSEWEKNGTPGEQRNIAFNRLKICLQNQEAELNLSELDLKTLPDLPPQITTLEIRKNLLTHLPDLPPMLKVIHAQFNQLESLPALPETLEELNAGDNKIKELPFLPENLTHLRVHNNRLHILPLLPPELKLLVVSGNRLDSIPPFPDKLEGLALANNFIEQLPELPFSMNRAVLMNNNLTTLPESVLRLAQNAFVNVAGNPLSGHT", "soluble on expression in E. coli": "not soluble"}
{"sequence": "MGSDKIHHHHHHMANKIKVLLTGAGSTLGREILAQLLTMRKVFEISVLDIKRGHTMAFFEKYKKEIHIFYGDCSVQDNTVEACKGQDFVIHCQSLEKANADKRLRLAEDVNTMGTRYIIENLERFSPGAYLLYISTVGVYGDRLKAPMISADNMTCPSMGDYDALTKLQAEKLVQESSLEWTIYRPGIILGHDSSLLNSSVFCMPLATRFETVHIRDLASACVKAYDHKASLWGRTYNVGGGEACRIVYSDYIRRLFKLLGLGYPEFPDRAFATRNRFGGYFADGDALEAILHFRRHTIEDYFKELAAQQPILKKLANKIFVGVQRKSLEGKSAPLRAIKENDRAKKKYYF", "soluble on expression in E. coli": "not soluble"}
{"sequence": "MKTLLYQKVYDQLKLSIQEGKIPVGSKMPTENELMAQFDVSSITLKKALELLKKDGYISRRPRVGTFVINDSPNSEQIETRKFDKPLFGCIMTNFDDTFGTILLSGMLEHSDSKAHIIVKKSLGDTEREEEILQEFIEMNVAGILILPASSKFVSPTLLELASQKFPLVVIDRTLEGLPISSISSDNTEAGRIITEKLFELGHKHIGMITSTSPVSTLDSRVNGFIRGHASFHTAFHSDYVFREIESVMPNSTVSIQTDIDKIARFLETHPEITALVATEYNIALLIKQACNKLGKSIPTNLSVVCFDHPDNFFDTSAFQFTHIKQAQYEIGVKAVDMLLNQVLKPDTINKETLPPLLVEGDSVEPLKSTSK", "soluble on expression in E. coli": "not soluble"}
{"sequence": "MIDVPFLKNVTLKKENIPSFSAYPYCLPAIRTLQSLAFHPNVTFIIGENGTGKSTLLEGIAIALGFNAEGGTKNFRFSTNDSHSSLHEYLRISKSFNTPSDGFFLRAESFYNVASYIDEIDADLEARGNPVIDSYGGISLHEQSHGESFFSLFMNRFSGQGLYILDEPEAALSPMRQLSMLIRMHELAEQGSQFVIATHSPILMAYPESTIYSLTQEGIQESALEDTEHYQTTKLFFENRDRLFHHLFNSLEHHHHHH", "soluble on expression in E. coli": "soluble"}
{"sequence": "MQSRQRLLISVLAAGESRRFQGAKLAQSLATSTSEDRGQSLLQRHIACLANFIVSPNDRRESLGALDAELLVVIGAHQTLLRPQLEALGAVKLTLLDNPHWRTGLASSLGVAAAYAKVHQFDGMLLTLADQVALTLNDYRQLIETWQNCRKSVAAHYSSQIGELDELGAPAIFNASILDSLTDLTGDRGAKSILKQLAYVGELEAVALPNAAIDIDTKADLALWLALKELEHHHHHH", "soluble on expression in E. coli": "not soluble"}
{"sequence": "MAYDSRLPEQRDPATDPSANYDYQGDSVNRPDLVSALEQRVDGDVRFDTYTRELFATDASAYEQLPIGVVSPVSTEDVVAVMEYCAAEDIPVLPRGGGTSLAGQAVNEAVVLDFKRYMDE", "soluble on expression in E. coli": "not soluble"}
{"sequence": "MGSDKIHHHHHHMETLFRSFRTQLEHTSTEVVRFLHDQIAWDSRLVAILGARGVGKTTLLLQHIKLYDREDESLYVTADDFYFTKYRLFDMAYQFYNLGGKKLYIDEIHKYKDWSREVKNIYDQIPGLQVIYTGSSILDLEKGGADLSRRKVEYRLPGLSFREYLNISQGWQLPSYSLEEILAGKVEFPYKEARPLKLFNDYLSTGYYPFFQDTEYLLRLRSVINQMVESDIPIFADMTVASAVKLKKLLYVLAQSVPFKPNYTKLARDLDISRNVLPDYMSYLEKAGLVNLLREKAQGLKLLEKVEKIYLNNTNLAYALSEQVPDIGSVRETVFLSWMRVVCFVTSSAISDFEIDGRTFEIGGKNKTRQQIKQAADGYVVKDDIEYAFRNMIPLWMFGFIY", "soluble on expression in E. coli": "not soluble"}
{"sequence": "MTIYFKNGFYDDTLGGIPEGAVAVRAEEYAALLAGQAQGGQIAADSDGRPVLTPPRPSDYHEWDGKKWKISKAAAAARFAKQKTALAFRLAEKADELKNSLLAGYPQVEIDSFYRQEKEALARQADNNAPTPMLAQIAAARGVELDVLIEKVIEKSARLAVAAGAIIGKRQQLEDKLNTIETAPGLDALEKEIEEWTLNIG", "soluble on expression in E. coli": "not soluble"}
{"sequence": "MNLLIDNWIPVRPRNGGKVQIINLQSLYCSRDQWRLSLPRDDMELAALALLVCIGQIIAPAKDDVEFRHRIMNPLTEDEFQQLIAPWIDMFYLNHAEHPFMQTKGVKANDVTPMEKLLAGVSGATNCAFVNQPGQGEALCGGCTAIALFNQANQAPGFGGGFKSGLRGGTPVTTFVRGIDLRSTVLLNVLTLPRLQKQFPNESHTENQPTWIKPIKSNESIPASSIGFVRGLFWQPAHIELCDPIGIGKCSCCGQESNLRYTGFLKEKFTFTVNGLWPHPHSPCLVTVKKGEVEEKFLAFTTSAPSWTQISRVVVDKIIQNENGNRVAAVVNQFRNIAPQSPLELIMGGYRNNQASILERRHDVLMFNQGWQQYGNVINEIVTVGLGYKTALRKALYTFAEGFKNKDFKGAGVSVHETAERHFYRQSELLIPDVLANVNFSQADEVIADLRDKLHQLCEMLFNQSVAPYAHHPKLISTLALARATLYKHLRELKPQGGPSNG", "soluble on expression in E. coli": "soluble"}
{"sequence": "MILLIDNYDSFTFNLEQYLAEFSEVVVKRNDAADLIKIAALADGIVLSPGPGKPSDAGLLEEVVAKFAKEKPLLGICLGHQAIGEVFGGEVKRAAKIRHGKVSTMRQTAGAIFANLPEEMPVMRYHSLIVDKNTLPDVLEVLAIATDDSEVMAMKVKDYPVYGLQFHPESIGTNDGKQMMENFIHIVEGARENGNLTTKSI", "soluble on expression in E. coli": "not soluble"}
{"sequence": "MSLRSGVEMAQRFARYPGAVANAARLGAACAFDVRLIAPRLPDFPVPPGHTEMSYLRELAMRGAAEKYGPPHQRPDVYRQLDYELDVIEQLGFPGYFLVVWEIVEFCRSRGILCQGRGSAANSVVCYVLGITKADPIAFRLLFERFLSPERDGPPDIDVDIESGRREEVIQYVYSRYGRERAAQVATVITYRPRSAVRDMARALGYSPGQQDAWSKQLDRYGEIPRGSEADHDVPDDVVHLARQVLGFPRHLGIHSGGMVICDRPVAEVCPVEWARMPGRSVLQWDKDDCARIGVVKFDLLGLGMLSALRECFDLIETYHGVRLSLETIPPEDPAVYDMLCAADSVGVFQVESRAQMATLPRLQPRNFYDLVTEVAIIRPGPIQGGSVHPFIRRRRGREPVRYAHPLLRHSLERTYGVPLFQEQIMQMAIDVAGLTPAEADHLRQAMGAKREGHHHHHH", "soluble on expression in E. coli": "soluble"}
